Laboratory results taken from article PMC5809250.
Each block holds one substance with its values, some of them ahead of it.

Key:
Test in all cases: AUC
[1] = target: Advate (recombinant full-length factor VIII, HC–LC heterodimer) (human) (UniProt P00451)
[2] = target: Kogenate FS (recombinant full-length factor VIII, HC–LC heterodimer) (human) (UniProt P00451)
[3] = target: Helixate FS (recombinant full-length factor VIII, HC–LC heterodimer) (human) (UniProt P00451)

percent of the A280 signal in the 12–20 S distribution (Lot 2) [1]: 3.8%
percent of the protein-related absorbance signal in the 10.5–10.6 S peak [1]: 7%
stoichiometry N [1]: 2
Substance: Advate (recombinant full-length factor VIII, HC–LC heterodimer) (from UniProt P00451 20-1332; P00451 1668-2351) (complex)

percent of the protein-related absorbance signal in the 10.5–10.6 S peak [2]: 5%
stoichiometry N [2]: 2
Substance: Kogenate FS (recombinant full-length factor VIII, HC–LC heterodimer) (from UniProt P00451 20-1332; P00451 1668-2351) (complex)

stoichiometry N [3]: 2
Substance: Helixate FS (recombinant full-length factor VIII, HC–LC heterodimer) (from UniProt P00451 20-1332; P00451 1668-2351) (complex)
